Assay results: patent publication US12281340B2, “Method of producing N-acyl-amino group-containing compound” (AJINOMOTO CO., INC., priority 2018, dated 2025)

How the values were obtained:
Assay type in all cases: biochemical
Design in all cases: key: +: Detected; −: Not detected
[1] = Synthesis of N-caprinoylamino acid using purified acylamino acid synthetase, UPLC-MS detection; details: +ATP
Description: 2.0 mL of a reaction solution containing 50 mM Tris-HCl, 5 mM amino acid, 5 mM sodium caprate, 10 mM ATP, 10 mM MgCl2, 1 mM DTT, 50 μg of the purified enzyme, pH 8.0 was incubated at 25° C. for 24 hours. After completion of the reaction, 0.8 mL of a reaction stop solution (1% (v/v) phosphoric acid, 75% (v/v) methanol) was added, and the mixture was filtrated through a filter followed by being subjected to the UPLC-MS analysis to detect a signal of a molecular weight corresponding to an N-caprinoyl amino acid.
A UPLC-MS analysis condition is as follows.
(§1) Apparatus: ACQUITY UPLC (Waters)
• Column: ACQUITY UPLC BEH C18 1.7 2.1×100 mm Column (Waters) • Mobile phase A: 0.1% formic acid • Mobile phase B: acetonitrile Gradient
• Flow rate: 0.6 mL/min • Injection amount: 2 μL • Column temperature: 40° C. • Ionization method: ESI-negative
As a result of the UPLC-MS analysis, the signal of the molecular weight corresponding to the N-caprinoyl amino acid was confirmed in the reaction solution combining the enzyme and the amino acid shown in Table 3 below.

[2] = Synthesis of N-caprinoyl-amino acid derivative, N-caprinoyl-D-amino acid and N-caprinoyl-peptide using purified acylamino acid synthetase, UPLC-MS detection; details: +ATP
Description: 0.2 mL of a reaction solution containing 50 mM Tris-HCl, 5 mM amino acid derivative or D-amino acid or peptide, 5 mM sodium caprate, 10 mM ATP, 10 mM MgCl2, 1 mM DTT, 50 μg/mL of the purified enzyme, pH 8.0 was incubated at 25° C. for 24 hours. After completion of the reaction, 0.8 mL of the reaction stop solution (1% (v/v) phosphoric acid, 75% (v/v) methanol) was added, and the mixture was filtrated through the filter followed by being subjected to the UPLC-MS analysis to detect a signal of a molecular weight corresponding to an N-caprinoyl-amino acid derivative, an N-caprinoyl-amino acid or an N-caprinoyl-peptide. A condition for the UPLC-MS analysis is as described in Example 2.
As a result of the UPLC-MS analysis, the signal of the molecular weight corresponding to the N-caprinoyl-amino acid derivative, or N-caprinoyl-amino acid, or N-caprinoyl-peptide was confirmed in the reaction solution containing the enzyme in combination with the amino acid derivative or the D-amino acid or the peptide shown in Table 4 below.

[3] = Synthesis of N-acylamino acids from various fatty acids using purified acylamino acid synthetase, UPLC-MS detection
Description: 0.1 mL of a reaction solution containing 50 mM Tris-HCl, 5 mM amino acid, 5 mM sodium fatty acid (3 mM of sodium palmitate or sodium stearate), 10 mM ATP, 10 mM MgCl2, 1 mM DTT, 200 μg/mL of the purified enzyme, pH 8.0 was shaken at 25° C. for 24 hours. When sodium palmitate or sodium stearate was used, methanol at a final concentration of 10% (v/v) was contained in the reaction solution. As the amino acid, L-Asp was used in AtGH3-6, OsGH3-8, AtGH3-5, AtGH3-12, L-Ile was used in AtJAR1, L-Ala was used in AtGH3-10, SsGH3, L-Glu was used in AtGH3-17, Gly was used in CfHP, L-Lys was used in PsIAAL, and L-Cys was used in PaHP. After completion of the reaction, 0.4 mL of the reaction stop solution (1% (v/v) phosphoric acid, 75% (v/v) methanol) was added, and the mixture was filtrated through the filter followed by being subjected to the UPLC-MS analysis to detect a signal of a molecular weight corresponding to the N-acylamino acid.
The condition for the UPLC-MS analysis is as follows.
as §1
Column: ACQUITY UPLC BEH C18 1.7 μm 2.1×100 mm Column (Waters), mobile phase A: 0.1% formic acid; mobile phase B: acetonitrile
• Flow rate: 0.6 mL/minute • Injection amount: 2 μL • Column temperature: 40° C. • Ionization method: ESI-negative
As a result of the UPLC-MS analysis, the signal of the molecular weight corresponding to the appropriate N-acylamino acid was confirmed in the reaction solution containing the enzyme in combination with sodium fatty acid shown in Table 7 below.

signal of molecular weight corresponding to N-caprinoyl amino acid ([1]; substrates GABA and sodium caprate): +
signal of molecular weight corresponding to N-caprinoyl amino acid ([1]; substrates Gly and sodium caprate): +
signal of molecular weight corresponding to N-caprinoyl amino acid ([1]; substrates L-Ala and sodium caprate): +
signal of molecular weight corresponding to N-caprinoyl amino acid ([1]; substrates L-Arg and sodium caprate): +
signal of molecular weight corresponding to N-caprinoyl amino acid ([1]; substrates L-Asn and sodium caprate): +
signal of molecular weight corresponding to N-caprinoyl amino acid ([1]; substrates L-Asp and sodium caprate): +
signal of molecular weight corresponding to N-caprinoyl amino acid ([1]; substrates L-Cys and sodium caprate): −
signal of molecular weight corresponding to N-caprinoyl amino acid ([1]; substrates L-Gln and sodium caprate): +
signal of molecular weight corresponding to N-caprinoyl amino acid ([1]; substrates L-Glu and sodium caprate): +
signal of molecular weight corresponding to N-caprinoyl amino acid ([1]; substrates L-His and sodium caprate): +
signal of molecular weight corresponding to N-caprinoyl amino acid ([1]; substrates L-Ile and sodium caprate): +
signal of molecular weight corresponding to N-caprinoyl amino acid ([1]; substrates L-Leu and sodium caprate): +
signal of molecular weight corresponding to N-caprinoyl amino acid ([1]; substrates L-Lys and sodium caprate): −
signal of molecular weight corresponding to N-caprinoyl amino acid ([1]; substrates L-Met and sodium caprate): +
signal of molecular weight corresponding to N-caprinoyl amino acid ([1]; substrates L-Phe and sodium caprate): +
signal of molecular weight corresponding to N-caprinoyl amino acid ([1]; substrates L-Pro and sodium caprate): +
signal of molecular weight corresponding to N-caprinoyl amino acid ([1]; substrates L-Ser and sodium caprate): +
signal of molecular weight corresponding to N-caprinoyl amino acid ([1]; substrates L-Thr and sodium caprate): +
signal of molecular weight corresponding to N-caprinoyl amino acid ([1]; substrates L-Trp and sodium caprate): +
signal of molecular weight corresponding to N-caprinoyl amino acid ([1]; substrates L-Tyr and sodium caprate): +
signal of molecular weight corresponding to N-caprinoyl amino acid ([1]; substrates L-Val and sodium caprate): +
signal of molecular weight corresponding to N-caprinoyl amino acid ([1]; substrates β-Ala and sodium caprate): +
signal of molecular weight corresponding to N-caprinoyl compound ([2]; substrates Carnosine and sodium caprate): −
signal of molecular weight corresponding to N-caprinoyl compound ([2]; substrates D-Ala and sodium caprate): +
signal of molecular weight corresponding to N-caprinoyl compound ([2]; substrates D-Asp and sodium caprate): +
signal of molecular weight corresponding to N-caprinoyl compound ([2]; substrates D-Cys and sodium caprate): −
signal of molecular weight corresponding to N-caprinoyl compound ([2]; substrates D-Glu and sodium caprate): +
signal of molecular weight corresponding to N-caprinoyl compound ([2]; substrates D-Ile and sodium caprate): +
signal of molecular weight corresponding to N-caprinoyl compound ([2]; substrates D-Lys and sodium caprate): −
signal of molecular weight corresponding to N-caprinoyl compound ([2]; substrates L-Asp-L-Phe and sodium caprate): −
signal of molecular weight corresponding to N-caprinoyl compound ([2]; substrates L-Gly-L-Gly and sodium caprate): +
signal of molecular weight corresponding to N-caprinoyl compound ([2]; substrates Sarcosine and sodium caprate): +
signal of molecular weight corresponding to N-caprinoyl compound ([2]; substrates Taurine and sodium caprate): +
signal of molecular weight corresponding to N-acylamino acid ([3]; substrates L-Ile and Capric acid): +
signal of molecular weight corresponding to N-acylamino acid ([3]; substrates L-Ile and Caproic acid): +
signal of molecular weight corresponding to N-acylamino acid ([3]; substrates L-Ile and Caprylic acid): +
signal of molecular weight corresponding to N-acylamino acid ([3]; substrates L-Ile and Lauric acid): +
signal of molecular weight corresponding to N-acylamino acid ([3]; substrates L-Ile and Linoleic acid): −
signal of molecular weight corresponding to N-acylamino acid ([3]; substrates L-Ile and Palmitic acid): −
signal of molecular weight corresponding to N-acylamino acid ([3]; substrates L-Ile and myristic acid): −
B1: AtJAR1: Jasmonic acid-amido synthetase JAR1 from Arabidopsis thaliana, His-tagged (protein, listed as Arabidopsis thaliana)
chain: MLEKVETFDMNRVIDEFDEMTRNAHQVQKQTLKEILLKNQSAIYLQNCGLNGNATDPEEAFKSMVPLVTDVELEPYIKRMVDGDTSPILTGHPVPAISLSSGTSQGRPKFIPFTDELMENTLQLFRTAFAFRNRDFPIDDNGKALQFIFSSKQYISTGGVPVGTATTNVYRNPNFKAGMKSITSPSCSPDEVIFSPDVHQALYCHLLSGILFRDQVQYVFAVFAHGLVHAFRTFEQVWEEIVTDIKDGVLSNRITVPSVRTAMSKLLTPNPELAETIRTKCMSLSNWYGLIPALFPNAKYVYGIMTGSMEPYVPKLRHYAGDLPLVSHDYGSSEGWIAANVTPRLSPEEATFAVIPNLGYFEFLPVSETGEGEEKPVGLTQVKIGEEYEVVITNYAGLYRYRLGDVVKVIGFYNNTPQLKFICRRNLILSINIDKNTERDLQLSVESAAKRLSEEKIEVIDFSSYIDVSTDPGHYAIFWEISGETNEDVLQDCCNCLDRAFIDAGYVSSRKCKTIGALELRVVAKGTFRKIQEHFLGLGSSAGQFKMPRCVKPSNAKVLQILCENVVSSYFSTAF
modifications: His-tag
notes: Jasmonic acid-amido synthetase JAR1 from Arabidopsis thaliana, His-tagged
